The record followed here is publication PMC11885821, “Structures of complete HIV-1 TAR RNA portray a dynamic platform poised for protein binding and structural remodeling”.

Data set [1] has as its target PKR dsRBMs (Homo sapiens) (UniProt P19525). The experiment in a line: FP.
For data set [2], the target named is PKR (unphosphorylated) (Homo sapiens) (UniProt P19525). The experiment in a line: FP.
Data set [3] has as its target T1, PKR (unphosphorylated) (Homo sapiens, UniProt P19525 1-551). Description: FP. The following applies: protein: recombinant, tags: His tag (HisTrap purified), hairpin.
For data set [4], the target named is T2, PKR dsRBMs (Homo sapiens, UniProt P19525 9-167). The experiment in a line: FP. The settings on record: protein: recombinant, tags: tag cleaved by TEV, hairpin.
For data set [5], the target named is T3, Tat44-60 WT (HIV-1, UniProt P04608).
T3 chain: GISYGRKKRRQRRRAHQ
Description: ITC; 1 mM Mg2+. The following applies: label: 3' FAM in FP; none in ITC and SEC-MALS; hairpin, blunt 2 G-C end; bulges C5, A17, U23-C24-U25. For orientation: Isothermal titration calorimetry measures the heat released or taken up as one component is titrated into another.

Data set [6] concerns the target NC (nucleocapsid) (HIV-1, UniProt P04591 378-432). Description: 2AP fluorescence lifetime. The following applies: protein: recombinant; tags: MBP tag cleaved by PreScission; label: 2AP; hairpin.
Data set [7] has as its target T3, Tat44-60 WT. The experiment in a line: 2AP fluorescence lifetime. The settings on record: label: 2AP; hairpin.
The target in data set [8] is T2, PKR dsRBMs. The experiment in a line: 2AP fluorescence lifetime. The following applies: protein: recombinant; tags: tag cleaved by TEV; label: 2AP; hairpin.
In data set [9] the target is T1, PKR (unphosphorylated). The experiment in a line: FP; printed Kd 0.02 uM conflicts with log Ka and with text (3-fold weaker). The following applies: protein: recombinant; tags: His tag (HisTrap purified); label: 3' FAM; hairpin.
The target of data set [10] is T3, Tat44-60 WT. The experiment in a line: crystal structure; peptide soaked into TAR-I crystals, 2.7 A; FP: 25 mM Tris-HCl pH 7.5, 50 mM NaCl, 50 mM KCl, 2 mM MgCl2, 21 C, 5 nM RNA; ITC: 25 mM Tris-HCl pH 7.5, 100 mM NaCl, 1 mM MgCl2, 25 C. The settings on record: hairpin, GAAA tetraloop.
Setting [11] is: label: 3' FAM in FP, none in ITC and SEC-MALS, blunt 2 G-C end, bulges C5, A17, U23-C24-U25.

Residue numbers refer to the chain shown, from its start. Names may count otherwise.

T2 sequence (P19525 9-167): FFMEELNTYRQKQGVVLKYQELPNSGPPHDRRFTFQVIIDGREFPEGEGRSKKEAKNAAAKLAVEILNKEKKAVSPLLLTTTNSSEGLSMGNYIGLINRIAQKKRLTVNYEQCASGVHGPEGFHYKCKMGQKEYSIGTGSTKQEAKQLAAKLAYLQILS
T1 sequence (P19525 whole entry): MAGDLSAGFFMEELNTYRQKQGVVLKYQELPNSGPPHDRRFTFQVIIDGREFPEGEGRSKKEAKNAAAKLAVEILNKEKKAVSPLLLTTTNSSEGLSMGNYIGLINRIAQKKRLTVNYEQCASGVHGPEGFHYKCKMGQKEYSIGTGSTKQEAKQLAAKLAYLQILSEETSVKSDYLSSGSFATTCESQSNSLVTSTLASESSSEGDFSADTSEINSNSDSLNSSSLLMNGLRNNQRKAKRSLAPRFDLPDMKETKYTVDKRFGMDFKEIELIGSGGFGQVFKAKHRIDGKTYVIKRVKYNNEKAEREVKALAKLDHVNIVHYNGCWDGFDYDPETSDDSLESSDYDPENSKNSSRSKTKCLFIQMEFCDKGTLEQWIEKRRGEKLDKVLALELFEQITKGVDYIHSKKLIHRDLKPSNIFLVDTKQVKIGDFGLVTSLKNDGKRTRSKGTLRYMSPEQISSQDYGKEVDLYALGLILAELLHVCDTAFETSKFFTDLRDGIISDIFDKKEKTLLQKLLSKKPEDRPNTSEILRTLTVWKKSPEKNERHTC
Sequence of PKR dsRBMs (Homo sapiens) (P19525 9-167): as the sequence (P19525 9-167) above
Sequence of PKR (unphosphorylated) (Homo sapiens) (P19525 whole entry): as the sequence (P19525 whole entry) above

For TARΔ23-39, the results for the Kd in data set [1] and in [2] were 190 nM and 54 nM, respectively.
Consider VA-I RNA, for which the equilibrium dissociation constant (Kd) (as a rule, the concentration at which binding is half-saturated) in data set [1] is 220 nM; in data set [2], 40 nM.

B1: TARΔ14bp (structured_RNA)
RNA: CCAGAUCUGAGCCUGGGAGCUCUCUGG
Take B1: the values for the Kd in [3] (label: 3' FAM) and in data set [4] (label: 3' FAM) were 1230 ± 1000 nM and 2280 ± 700 nM, respectively.

B2: TAR2GC (WT) (structured_RNA)
RNA: GGUCUCUCUGGUUAGACCAGAUCUGAGCCUGGGAGCUCUCUGGCUAACUAGGGAACC
On to B2, for which the Kd was 35 ± 5 nM in data set [3] (setting [11]), 120 ± 10 nM in [4] (setting [11]) and 160 ± 100 nM in data set [5].

B3: 2AP24 TAR2GC (structured_RNA)
RNA: B2 RNA with C23A
modifications: 2-aminopurine at C24
For the molecule B3, the binding result in data set [6], in [7] and in data set [8] was “binds” in each case.

B4: 2AP20 TAR2GC (structured_RNA)
RNA: B2 RNA
modifications: 2-aminopurine at A20
On to B4, for which the binding result in [6], in data set [7] and in data set [8] was “binds” each time.

B5: TAR A48U/C49G/U50A (structured_RNA)
RNA: B2 RNA with A47U, C48G, U49A
Regarding B5, in data set [4] (label: 3' FAM), the Kd turned out to be 360 ± 120 nM. The Ka in [9] was 7.02 ± 0.11 log10 M-1.

B6: 2AP3 TAR2GC C57U (structured_RNA)
RNA: B2 RNA with G2A, C56U
modifications: 2-aminopurine at G3; C57U
On to B6, for which the binding result in data set [6], in data set [7] and in [8] was “binds” in each case.

B7: 2AP17 TAR2GC (structured_RNA)
RNA: B2 RNA
modifications: 2-aminopurine at A17
As for B7, the binding result in data set [6] and in [7] was “binds” in each case.

B8: TAR GAAA (TAR-I) (structured_RNA)
RNA: B2 RNA with U30G, G31A, G32A, G33A
With B8, the binding result in [10] is reported as “binds”.

B9: TARΔ4bp (structured_RNA)
RNA: CUCUGGUUAGACCAGAUCUGAGCCUGGGAGCUCUCUGGCUAACUAGGG
On to B9, for which the Kd in data set [3] (label: 3' FAM) turned out to be 50 ± 3 nM; in data set [4] (label: 3' FAM), 290 ± 20 nM.

B10: TARΔ9bp (structured_RNA)
RNA: GUUAGACCAGAUCUGAGCCUGGGAGCUCUCUGGCUAAC
Regarding B10, the Kd in data set [3] (label: 3' FAM) is 130 ± 40 nM; in [4] (label: 3' FAM), 1900 ± 700 nM.
